Measured values: patent US20230059341A1 (TESARO, published 2023)
Read-outs that look alike come from different tables or passages of the source.

Tests used:
[1] = molecular target: T1, Neonatal Fc Receptor (FcRn) (UniProt P55899 24-297; P61769 21-119, limits assumed); test: FcRn binding assay, BIACORE (SPR)
[2] = molecular target: T2, human PD-1 on PD-1 effector cells (Jurkat T cells, Promega #J1155) (human, UniProt Q15116 25-288); test: cell-based or functional assay
[3] = molecular target: T2, human PD-1 on PD-1 effector cells …; test: cell-based or functional assay; remark: listed apart in the source
[4] = molecular target: T3, PD-1 protein constitutively expressed on engineered CHO K1 cells (UniProt Q15116 25-288, limits assumed); test: MSD potency assay: competitive binding on CHO K1 cells expressing PD-1, inhibition of PD-L1-mFc binding, ECL; percent of reference material
T3 construct: whole, on cells; also called programmed cell death protein 1
T3 sequence (Q15116 25-288 limits assumed, change not shown): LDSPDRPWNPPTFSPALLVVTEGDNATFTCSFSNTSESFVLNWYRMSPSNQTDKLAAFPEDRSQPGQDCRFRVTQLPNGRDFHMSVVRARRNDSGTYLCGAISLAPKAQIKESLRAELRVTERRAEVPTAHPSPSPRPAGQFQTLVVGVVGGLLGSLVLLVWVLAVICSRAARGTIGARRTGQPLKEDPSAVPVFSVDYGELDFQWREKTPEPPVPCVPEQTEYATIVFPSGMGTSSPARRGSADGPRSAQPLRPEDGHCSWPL
Protocol: (§1) The Meso Scale Discovery (MSD) potency assay employs engineered CHO K1 cells constitutively expressing the PD-1 protein. […] The readout is measured using a specific detection antibody mixture that releases an electrochemiluminescence (ECL) signal that can be quantified.

[5] = molecular target: T1, Neonatal Fc Receptor (FcRn); test: FcRn binding assay, BIACORE (SPR); remark: listed apart in the source
[6] = molecular target: T3, PD-1 protein constitutively expressed …; test: MSD potency assay: competitive binding on CHO K1 cells expressing PD-1, inhibition of PD-L1-mFc binding, ECL; percent of reference material; remark: listed apart in the source
Protocol: as §1

[7] = molecular target: T2, human PD-1 on PD-1 effector cells …; test: cell-based or functional assay; remark: listed apart in the source
[8] = molecular target: T1, Neonatal Fc Receptor (FcRn); test: FcRn binding assay, BIACORE (SPR); remark: listed apart in the source
[9] = molecular target: T3, PD-1 protein constitutively expressed …; test: MSD potency assay: competitive binding on CHO K1 cells expressing PD-1, inhibition of PD-L1-mFc binding, ECL; percent of reference material; remark: listed apart in the source
Protocol: as §1

T1 sequence (P55899 24-297 limits assumed, chain 1 of 2): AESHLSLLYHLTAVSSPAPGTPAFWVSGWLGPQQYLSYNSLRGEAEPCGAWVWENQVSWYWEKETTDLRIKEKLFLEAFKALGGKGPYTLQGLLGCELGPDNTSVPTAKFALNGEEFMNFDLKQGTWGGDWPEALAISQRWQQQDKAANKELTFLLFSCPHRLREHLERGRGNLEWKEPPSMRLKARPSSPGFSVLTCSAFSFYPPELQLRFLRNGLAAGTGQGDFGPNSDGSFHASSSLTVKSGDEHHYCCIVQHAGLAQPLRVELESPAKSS
T1 sequence (P61769 21-119 limits assumed, chain 2 of 2): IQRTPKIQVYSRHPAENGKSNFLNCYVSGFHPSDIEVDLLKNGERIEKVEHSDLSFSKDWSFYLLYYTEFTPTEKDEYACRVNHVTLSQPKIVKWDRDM
T2 sequence (Q15116 25-288): as the sequence (Q15116 25-288 limits assumed, change not shown) above

B1: Dostarlimab, thermally degraded, 50° C., 3 weeks (antibody, human IgG4 S228P, kappa)
heavy: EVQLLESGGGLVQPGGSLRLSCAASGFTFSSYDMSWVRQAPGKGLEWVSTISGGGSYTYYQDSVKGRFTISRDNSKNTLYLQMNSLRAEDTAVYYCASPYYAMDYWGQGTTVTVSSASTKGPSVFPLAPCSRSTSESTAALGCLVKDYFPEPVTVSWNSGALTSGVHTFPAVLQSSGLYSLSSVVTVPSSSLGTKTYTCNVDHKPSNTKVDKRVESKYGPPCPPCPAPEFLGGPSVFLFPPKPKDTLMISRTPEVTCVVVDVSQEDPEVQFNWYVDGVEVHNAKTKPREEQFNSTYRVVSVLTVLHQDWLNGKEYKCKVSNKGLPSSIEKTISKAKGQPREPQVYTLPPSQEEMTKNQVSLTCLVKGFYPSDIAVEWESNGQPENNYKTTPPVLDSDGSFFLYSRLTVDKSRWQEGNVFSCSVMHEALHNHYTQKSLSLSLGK
light: DIQLTQSPSFLSAYVGDRVTITCKASQDVGTAVAWYQQKPGKAPKLLIYWASTLHTGVPSRFSGSGSGTEFTLTISSLQPEDFATYYCQHYSSYPWTFGQGTKLEIKRTVAAPSVFIFPPSDEQLKSGTASVVCLLNNFYPREAKVQWKVDNALQSGNSQESVTEQDSKDSTYSLSSTLTLSKADYEKHKVYACEVTHQGLSSPVTKSFNRGEC
modifications: percent of population: Asp 151/167 isomerization 2.5; percent of population: Met 248 oxidation 7.6; Asp 261/266/276 isomerization 13.1; Asn 311 deamidation 7.4; Met 354 oxidation 4.2; Asn 380 deamidation 14.7; Asn 385 deamidation 5.9; Asp 395/397/409 isomerization 2.2; Met 424 oxidation 3.5; Asn 430 deamidation 2.0; Lys 443 clipped 97.8
notes: Mixture; HMW 11.2%, acidic peaks 59.1%; also called Thermal Degradation
[1]
  Kd: 2290 nM
[2]
  Relative Potency, Cell-Based Bioassay: 86%
[3]
  Relative Potency (Potency by cell-based bioassay): 86%
[4]
  Relative Potency, MSD Binding: 76%

B2: Dostarlimab, AAPH treated, T0 (exposed to AAPH, no incubation) (antibody, human IgG4 S228P, kappa)
heavy: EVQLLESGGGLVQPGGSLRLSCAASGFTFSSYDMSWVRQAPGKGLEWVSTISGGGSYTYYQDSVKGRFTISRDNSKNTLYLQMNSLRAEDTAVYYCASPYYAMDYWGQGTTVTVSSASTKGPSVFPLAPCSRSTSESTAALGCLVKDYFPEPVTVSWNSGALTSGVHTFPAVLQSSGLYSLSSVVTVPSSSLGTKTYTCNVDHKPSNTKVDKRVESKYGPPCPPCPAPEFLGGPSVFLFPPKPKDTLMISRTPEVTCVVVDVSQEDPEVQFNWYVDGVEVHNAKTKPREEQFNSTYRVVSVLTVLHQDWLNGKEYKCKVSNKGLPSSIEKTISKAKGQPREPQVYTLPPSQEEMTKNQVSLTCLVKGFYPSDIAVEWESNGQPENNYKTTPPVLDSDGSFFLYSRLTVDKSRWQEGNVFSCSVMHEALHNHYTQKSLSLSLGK
light: DIQLTQSPSFLSAYVGDRVTITCKASQDVGTAVAWYQQKPGKAPKLLIYWASTLHTGVPSRFSGSGSGTEFTLTISSLQPEDFATYYCQHYSSYPWTFGQGTKLEIKRTVAAPSVFIFPPSDEQLKSGTASVVCLLNNFYPREAKVQWKVDNALQSGNSQESVTEQDSKDSTYSLSSTLTLSKADYEKHKVYACEVTHQGLSSPVTKSFNRGEC
modifications: percent of population: Asn 137 deamidation 1.0; percent of population: Met 248 oxidation 3.3; Asp 261/266/276 isomerization 1.0; Asn 311 deamidation 6.3; Asn 380 deamidation 9.5; Asn 385 deamidation 1.0; Asn 430 deamidation 1.3; Lys 443 clipped 97.8
notes: 5 mM AAPH, quenched at once with methionine; also called AAPH T0; AAPH Oxidation
[5]
  Kd: 1660 nM
[6]
  Relative Potency, MSD Binding: 79%
[7]
  Relative Potency, Cell-Based Bioassay: 102%
[3]
  Relative Potency (Potency by cell-based bioassay): 102%

B3: Dostarlimab, AAPH treated, 40° C., 3 days (antibody, human IgG4 S228P, kappa)
heavy: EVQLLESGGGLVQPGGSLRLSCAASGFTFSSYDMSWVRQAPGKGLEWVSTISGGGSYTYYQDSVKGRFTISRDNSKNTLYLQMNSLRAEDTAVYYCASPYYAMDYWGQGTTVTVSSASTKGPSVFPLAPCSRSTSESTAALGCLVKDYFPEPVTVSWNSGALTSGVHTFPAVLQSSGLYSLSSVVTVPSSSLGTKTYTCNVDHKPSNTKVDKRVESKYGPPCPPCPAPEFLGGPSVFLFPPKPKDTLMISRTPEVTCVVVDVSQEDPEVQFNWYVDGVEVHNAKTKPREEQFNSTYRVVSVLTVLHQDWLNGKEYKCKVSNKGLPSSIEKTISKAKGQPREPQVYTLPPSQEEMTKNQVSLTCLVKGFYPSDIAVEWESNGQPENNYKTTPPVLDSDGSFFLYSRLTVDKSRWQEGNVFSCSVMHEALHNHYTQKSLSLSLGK
light: DIQLTQSPSFLSAYVGDRVTITCKASQDVGTAVAWYQQKPGKAPKLLIYWASTLHTGVPSRFSGSGSGTEFTLTISSLQPEDFATYYCQHYSSYPWTFGQGTKLEIKRTVAAPSVFIFPPSDEQLKSGTASVVCLLNNFYPREAKVQWKVDNALQSGNSQESVTEQDSKDSTYSLSSTLTLSKADYEKHKVYACEVTHQGLSSPVTKSFNRGEC
modifications: percent of population: Trp 50 oxidation 74.2; percent of population: Met 103 oxidation 7.0; Met 248 oxidation 88.4; Asp 261/266/276 isomerization 1.0; Asn 311 deamidation 6.6; Met 354 oxidation 44.8; Asn 380 deamidation 9.6; Asn 385 deamidation 1.2; Met 424 oxidation 78.2; Lys 443 clipped 97.7
notes: 5 mM AAPH; HMW 11.8%; also called AAPH, 40° C., 3 days
[5]
  Kd: 8330 nM
[6]
  Relative Potency, MSD Binding: 57%
[7]
  Relative Potency, Cell-Based Bioassay: 14%

B4: Dostarlimab, AAPH treated, 40° C., 7 days (antibody, human IgG4 S228P, kappa)
heavy: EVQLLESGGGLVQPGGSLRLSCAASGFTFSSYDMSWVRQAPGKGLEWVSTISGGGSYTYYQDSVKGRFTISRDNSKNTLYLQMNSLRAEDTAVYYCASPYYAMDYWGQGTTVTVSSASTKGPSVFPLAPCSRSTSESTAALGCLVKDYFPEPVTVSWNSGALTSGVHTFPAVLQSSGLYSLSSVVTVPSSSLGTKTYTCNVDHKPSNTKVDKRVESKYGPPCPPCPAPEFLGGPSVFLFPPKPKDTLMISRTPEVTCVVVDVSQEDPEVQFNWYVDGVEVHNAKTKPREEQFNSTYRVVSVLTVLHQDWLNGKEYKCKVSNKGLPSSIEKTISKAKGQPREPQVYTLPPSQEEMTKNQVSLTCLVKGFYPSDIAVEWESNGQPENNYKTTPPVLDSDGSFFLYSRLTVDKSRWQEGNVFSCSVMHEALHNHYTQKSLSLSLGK
light: DIQLTQSPSFLSAYVGDRVTITCKASQDVGTAVAWYQQKPGKAPKLLIYWASTLHTGVPSRFSGSGSGTEFTLTISSLQPEDFATYYCQHYSSYPWTFGQGTKLEIKRTVAAPSVFIFPPSDEQLKSGTASVVCLLNNFYPREAKVQWKVDNALQSGNSQESVTEQDSKDSTYSLSSTLTLSKADYEKHKVYACEVTHQGLSSPVTKSFNRGEC
modifications: PTM levels of this sample are not tabulated
notes: 5 mM AAPH; HMW 18.7%; also called AAPH, 40° C., 7 days
[5]
  Kd: 9690 nM
[6]
  Relative Potency, MSD Binding: 43%

B5: Dostarlimab, base degraded, T0 (exposed to pH 9.0, no incubation) (antibody, human IgG4 S228P, kappa)
heavy: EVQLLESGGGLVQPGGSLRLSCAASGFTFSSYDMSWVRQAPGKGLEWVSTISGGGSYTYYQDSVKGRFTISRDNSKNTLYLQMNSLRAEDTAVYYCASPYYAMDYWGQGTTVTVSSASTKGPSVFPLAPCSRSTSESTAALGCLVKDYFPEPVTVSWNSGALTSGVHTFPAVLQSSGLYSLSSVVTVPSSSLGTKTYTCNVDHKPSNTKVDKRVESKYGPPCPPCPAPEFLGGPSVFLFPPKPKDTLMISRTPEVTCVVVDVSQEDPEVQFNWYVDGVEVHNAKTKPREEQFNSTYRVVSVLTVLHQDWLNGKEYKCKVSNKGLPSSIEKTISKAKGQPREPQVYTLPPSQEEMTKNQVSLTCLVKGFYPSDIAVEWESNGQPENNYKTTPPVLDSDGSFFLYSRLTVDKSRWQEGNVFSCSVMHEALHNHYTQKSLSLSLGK
light: DIQLTQSPSFLSAYVGDRVTITCKASQDVGTAVAWYQQKPGKAPKLLIYWASTLHTGVPSRFSGSGSGTEFTLTISSLQPEDFATYYCQHYSSYPWTFGQGTKLEIKRTVAAPSVFIFPPSDEQLKSGTASVVCLLNNFYPREAKVQWKVDNALQSGNSQESVTEQDSKDSTYSLSSTLTLSKADYEKHKVYACEVTHQGLSSPVTKSFNRGEC
modifications: percent of population: Asn 137 deamidation 1.3; percent of population: Met 248 oxidation 2.8; Asn 311 deamidation 6.8; Asn 380 deamidation 10.8; Asn 385 deamidation 1.8; Lys 443 clipped 96.9
notes: Mixture; HMW 8.1%, acidic peaks 27.2%
[8]
  Kd: 2260 nM

B6: Dostarlimab, AAPH treated, 40° C., 5 days (antibody, human IgG4 S228P, kappa, V domains shown)
VH: EVQLLESGGGLVQPGGSLRLSCAASGFTFSSYDMSWVRQAPGKGLEWVSTISGGGSYTYYQDSVKGRFTISRDNSKNTLYLQMNSLRAEDTAVYYCASPYYAMDYWGQGTTVTVSS
VL: DIQLTQSPSFLSAYVGDRVTITCKASQDVGTAVAWYQQKPGKAPKLLIYWASTLHTGVPSRFSGSGSGTEFTLTISSLQPEDFATYYCQHYSSYPWTFGQGTKLEIKR
modifications: percent of population: Trp 50 oxidation 86.8; PTM levels of this sample are not tabulated
notes: 5 mM AAPH; HMW 16.4%; also called AAPH, 40° C., 5 days
[6]
  Relative Potency, MSD Binding: 47%
[7]
  Relative Potency, Cell-Based Bioassay: 5%

B7: Dostarlimab, sustained agitation, 300 rpm, 25° C., 3 weeks (antibody, human IgG4 S228P, kappa, V domains shown)
VH: EVQLLESGGGLVQPGGSLRLSCAASGFTFSSYDMSWVRQAPGKGLEWVSTISGGGSYTYYQDSVKGRFTISRDNSKNTLYLQMNSLRAEDTAVYYCASPYYAMDYWGQGTTVTVSS
VL: DIQLTQSPSFLSAYVGDRVTITCKASQDVGTAVAWYQQKPGKAPKLLIYWASTLHTGVPSRFSGSGSGTEFTLTISSLQPEDFATYYCQHYSSYPWTFGQGTKLEIKR
modifications: all PTM levels within analytical variability of the control
[3]
  Relative Potency (Potency by cell-based bioassay): 86%

B8: Dostarlimab, H2O2 treated, 25° C., 1 week (antibody, human IgG4 S228P, kappa, V domains shown)
VH: EVQLLESGGGLVQPGGSLRLSCAASGFTFSSYDMSWVRQAPGKGLEWVSTISGGGSYTYYQDSVKGRFTISRDNSKNTLYLQMNSLRAEDTAVYYCASPYYAMDYWGQGTTVTVSS
VL: DIQLTQSPSFLSAYVGDRVTITCKASQDVGTAVAWYQQKPGKAPKLLIYWASTLHTGVPSRFSGSGSGTEFTLTISSLQPEDFATYYCQHYSSYPWTFGQGTKLEIKR
modifications: percent of population: Asn 137 deamidation 1.3; percent of population: Met 34 oxidation 14.0; Met 103 oxidation 64.9; Met 248 oxidation 98.6; Asn 311 deamidation 7.0; Met 354 oxidation 99.8; Asn 380 deamidation 10.9; Asn 385 deamidation 1.8; Met 424 oxidation 98.0; Lys 443 clipped 98.0
notes: 0.1% (v:v) H2O2; also called H2O2, 25° C., 1 week
[9]
  Relative Potency, MSD Binding: 79%
